Drawing on article PMC7396438, this text covers amount of cross-linked product (ImageJ, against nonspecific bands), stoichiometry N and sum of the amounts of the two cross-linked products (ImageJ) for 1 substance.

Where “and” joins values, the source holds several entries; their conditions need not be identical. Equal entries are not always repeated.

For orientation: stoichiometry N means a count of units in the complex or per binding partner.

Test in all cases: cross-linking; in vivo photo-cross-linking in BamA mutant strains (chromosomal bamA replaced; pBpa at 64, at 132, or at both); blot with antibodies against SurA, bands quantified with ImageJ against nonspecific bands as internal control; repeated twice
For test [1], the target named is BamA-R64pBpa (E. coli) (UniProt P0A940).
In test [2] the target is BamA-D132pBpa (E. coli) (UniProt P0A940).
The target in test [3] is BamA-R64&D132pBpa (E. coli) (UniProt P0A940).

SurA, sequence (P0ABZ6 21-428): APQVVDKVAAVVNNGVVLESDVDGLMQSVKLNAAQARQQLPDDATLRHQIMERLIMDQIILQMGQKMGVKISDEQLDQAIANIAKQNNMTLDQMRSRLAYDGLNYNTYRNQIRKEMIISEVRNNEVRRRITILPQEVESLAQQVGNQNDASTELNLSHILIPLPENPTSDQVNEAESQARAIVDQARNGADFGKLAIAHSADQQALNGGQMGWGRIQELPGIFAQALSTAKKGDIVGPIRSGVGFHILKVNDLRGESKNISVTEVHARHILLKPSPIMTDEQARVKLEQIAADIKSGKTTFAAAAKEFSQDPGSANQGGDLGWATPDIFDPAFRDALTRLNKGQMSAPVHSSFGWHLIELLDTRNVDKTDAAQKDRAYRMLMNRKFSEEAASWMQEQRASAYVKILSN

Regarding “SurA (from UniProt P0ABZ6 21-428) (natural protein)”, the amount of cross-linked product (ImageJ, against nonspecific bands) in test [1] was found to be 1.97. In test [2], the amount of cross-linked product (ImageJ, against nonspecific bands) stood at 2.12. For the same substance, in test [3], the amount of cross-linked product (ImageJ, against nonspecific bands) is 1 and 1.02; the stoichiometry N is 1; the sum of the amounts of the two cross-linked products (ImageJ) came out at 2.02.
